# Assay results from patent US20220325265A1, “GLUCOCEREBROSIDASE MUTANTS” (Hoffmann-la Roche Inc., priority 2019, published 2022).
# Where a chain is given by its changes, count along the chain named. In names and notes the source's numbering stands.
# B1: R495HS2: hGCase based on the Cerezyme sequence (R495H) but produced in S2 cells, His8-tagged; Seq. Id. No. 1 (protein, listed as Homo sapiens)
# chain: ARPCIPKSFGYSSVVCVCNATYCDSFDPPTFPALGTFSRYESTRSGRRMELSMGPIQANHTGTGLLLTLQPEQKFQKVKGFGGAMTDAAALNILALSPPAQNLLLKSYFSEEGIGYNIIRVPMASCDFSIRTYTYADTPDDFQLHNFSLPEEDTKLKIPLIHRALQLAQRPVSLLASPWTSPTWLKTNGAVNGKGSLKGQPGDIYHQTWARYFVKFLDAYAEHKLQFWAVTAENEPSAGLLSGYPFQCLGFTPEHQRDFIARDLGPTLANSTHHNVRLLMLDDQRLLLPHWAKVVLTDPEAAKYVHGIAVHWYLDFLAPAKATLGETHRLFPNTMLFASEACVGSKFWEQSVRLGSWDRGMQYSHSIITNLLYHVVGWTDWNLALNPEGGPNWVRNFVDSPIIVDITKDTFYKQPMFYHLGHFSKFIPEGSQRVGLVASQKNDLDAVALMHPDGSAVVVVLNRSSKDVPLTIKDPAVGFLETISPGYSIHTYLWHRQ
# modifications: His8 tag
# B2: K321N/H145L: Amicus double mutant hGCase R495H/K321N/H145L produced in S2 cells; Seq. Id. No. 3 (protein, listed as Homo sapiens)
# chain: B1 chain with H145L, K321N
# notes: Amicus double mutant hGCase R495H/K321N/H145L produced in S2 cells; Id; No. 3
# B3: M53T/P55T: recombinant human β-glucocerebrosidase variant R495H/M53T/P55T, S2 cells; Seq. Id. No. 7 (protein, listed as Homo sapiens)
# chain: B1 chain with M53T, P55T
# notes: recombinant human β-glucocerebrosidase variant R495H/M53T/P55T, S2 cells; Id; No. 7
# B4: I5N: recombinant human β-glucocerebrosidase variant R495H/I5N, S2 cells; Seq. Id. No. 4 (protein, listed as Homo sapiens)
# chain: B1 chain with I5N
# notes: recombinant human β-glucocerebrosidase variant R495H/I5N, S2 cells; Id; No. 4
# B5: imiglucerase (protein, UniProt P04062 40-536, looked up, variant R495H)
# Lysosomal acid …: B1 chain
# modifications: imiglucerase; CHO-produced
# notes: Commercially available Cerezyme (imiglucerase, Genzyme), hGCase R495H produced in CHO cells
# Assays:
# [1] = system: H4 glioblastoma GBA-KO cells; assay: Reduction of natural substrate GlcSph in H4 GBA-KO cells (LC/MS); type: cell-based, human; settings: 48 h, vs untreated H4 GBA-KO cells
# Procedure: FIG. 9: Reduction of the natural substrate GlcSph after treatment of H4 glioblastoma GBA-KO cells with hGCase molecules. Treatment concentration (hGCase protein): 1, 10 and 100 nM, respectively. Analysis of substrate levels after 48 h of incubation via LC/MS. H4 wt cells (GCase levels normalized to 100%) and H4 GBA-KO cells (loss of GBA gene) served as control. ^1 measured glucosylsphingosine (GlcSph) levels normalized to total protein amount. ^2 H4 glioblastoma cells with knock-out GBA gene.
# (§1) Human H4 glioblastoma cells (H4 cells) were taken as human neuronal model to test purified hGCase variants in a cell-based setup. H4 wild-type cells and untreated H4 GBA-KO cells (knock-out of related GCase GBA gene) were taken as references. After seeding (40000 cells/well) and incubating them for ˜24 h, the GBA-KO cells were treated with 1, 10 and 100 nM of target protein sample and incubated for either 2 h (for uptake and GCase activity measurements) or 48 h (for substrate reduction measurements) at 37° C. with 5% CO2 and constant humidity. After cell-lysis (GCase activity buffer (table 2.6)+0.1% (w/v) Triton X-100+phosphatase (Phospho stop Roche in-house)+protease inhibitor (cOmplete EDTA-free)), the uptake of the enzymes into the cells was evaluated by measuring the hGCase concentration via AlphaLISA (section 2.3.6) as well as the activity after the uptake (section 2.3.5). Samples for substrate reduction determination were hand over to Iris Ruf (SMR, see section 2.7). Due to the loss of the GCase related GBA gene in H4 GBA-KO cells, the natural substrate glucosylsphingosine (GlcSph) accumulates. The reduction of GlcSph levels due to hGCase treatment was evaluated via LC/MS by Iris Ruf (SMR).
# (§2) Finally, the cellular uptake, activity and substrate reduction in human neuronal cells were determined to test the mutants' efficacy in a more cellular context. In this work, human H4 glioblastoma wild-type cells (wt) and H4 GBA-KO cells (knock-out of GCase related GBA gene) were used as a Gaucher cell model. H4 GBA-KO cells, which accumulate the natural substrate glucosylsphingosine (GlcSph) due to the loss of the GBA gene, were treated with 1, 10 and 100 nM of hGCase molecules, respectively. Activity and protein concentration (via AlphaLISA) were measured after two hours of incubation after several media wash steps. The reduction of natural substrate GlcSph was analyzed 48 h after cell treatment via LC/MS. The activity measured after uptake into the cells normalized to measured hGCase protein levels is graphed in FIG. 8. The evaluated activities are given as percentage of hGCase activity measured in wt H4 cells, set to 100%.
# To determine the enzymes' efficacies, the reduction of accumulated glucosylsphingosine (GlcSph) in H4 GBA-KO cells was investigated.
# [2] = Activatability of hGCase mutants by phosphatidylserine; type: biochemical; settings: 25 nM protein; for phosphatidylserine activation, fold increase of initial activity: 4 μM phosphatidylserine, 10 min pre-incubation at RT
# Procedure: Negatively charged lipids as phosphatidylserine are known to stabilize and activate the enzyme usually in combination with Saposin C (SAP-2), since GCase is naturally interacting with the membrane of the lysosomes in vivo. For the assay, 25 nM protein and 4 μM phosphatidylserine (Avanti; 10 mM stock solution dissolved in chloroform) were tested.
# After adding the lipid to the enzyme, the solution was pre-incubated for 10 min at RT before adding the substrate and initializing the enzymatic reaction. The hGCase activity without added phosphatidylserine was set to 100% relative enzyme activity. The increase in activity was expressed as X-fold the initial activity without activator.
# Several physiological substances have been reported to stimulate the activity of glucocerebrosidase. GCase is naturally interacting with the membrane of the lysosomes in vivo, thus negatively charged lipids such as phosphatidylserine are known to stabilize and activate the enzyme alone or in combination with Saposin C (SAP-2) (Qi & Grabowski, 1998; Sun et al., 2002; Vaccaro et al., 1995). Thus, it is essential to preserve these properties when modifying the GCase enzyme structure. To this end, the effect of phosphatidylserine alone was evaluated as first approach. The activity levels with and without added phosphatidylserine are plotted in FIG. 6.
# By translating the data into fold increase of the initial activity, a more conclusive statement can be drawn (FIG. 7).
# [3] = system: H4 glioblastoma GBA-KO cells; assay: GCase activity after uptake into H4 GBA-KO cells, normalized to hGCase protein level; type: cell-based, human; settings: 2 h incubation
# Procedure: FIG. 8: Activity levels normalized to hGCase protein levels measured after treatment of H4 glioblastoma GBA-KO cells with hGCase molecules. Treatment concentration (hGCase protein): 1, 10 and 100 nM (100 nM not shown herein), respectively. Activity and protein amount measurement after 2 h of incubation. Activity measured with artificial substrate res-β-glc (20 μM); protein concentration determination via AlphaLISA (section 2.3.6). H4 wt cells (GCase levels normalized to 100%) and H4 GBA-KO cells (loss of GBA gene) served as control. ^1 GCase activity measured in H4 cells normalized to activity measured in H4 (wt) cells designated to 100% and normalized to protein amount. ^2 H4 glioblastoma cells with knock-out GBA gene.
# as §1
# as §2, with “H4 GBA-KO cells, which accumulate the natural substrate glucosylsphingosine (GlcSph) due to the loss of the GBA gene, were treated with 1, 10 and 100 nM of hGCase molecules, respectively.” left out
Molecule,reduction in GlcSph levels (%) ([1]; 10 nM treatment),reduction in GlcSph levels (fold) ([1]; 10 nM treatment),"phosphatidylserine activation, fold increase of initial activity [2] [fold]",GCase activity level normalized to H4 wt GCase activity (100%) and protein amount ([3]; 1 nM protein treatment) [%],GCase activity level normalized to H4 wt GCase activity (100%) and protein amount ([3]; 10 nM protein treatment) [%],basal activity level (no added lipid) ([2]; no phosphatidylserine),reduction in GlcSph levels (%) ([1]; 1 nM treatment)
B1,~75,4,4.9,–,–,–,–
B2,–,–,~2.8,–,–,–,–
B3,~88,8.3,6.5,~4,26,–,–
B4,~75,4,7.5,–,–,least basal activity level,–
B5,97,–,11.5,4,44,–,82
